# Laboratory results as given in publication PMC7223222.
# Molecular target: pmE2:pFc2 fusion protein (transmembrane domain-deleted classical swine fever virus envelope glycopro (classical swine fever virus))
# Assay: SEC
substance,measurement,value
pmE2:pFc2 fusion protein (transmembrane domain-deleted classical swine fever virus envelope glycopro (Fc fusion),stoichiometry N,3
